Assay results reported in the supplement of paper PMC9233669.
Variants at the floor of the assay were thinned out.

Tests used:
biotinyl-Met-oxazolone = test: self-aminoacylation, catalytic enhancement (BMO) (fold over background); higher = more active; k-Seq, kA / k0A0; sequences stand for … in GGGAAUGGAUCCACAUCUACGAAUUC…UUCACUGCAGACUUGACGAAGCUG
Procedure, shortened: (§1)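 Mutagenized RNA pools with a 21-nt variable region (0.43 μM) were reacted with each biotinyl-aminoacyl-oxazolone at 2–1250 μM for 90 minutes at room temperature, in 50 μL HEPES/NaCl/KCl/MgCl2/CaCl2 buffer containing 5% acetonitrile at pH 6.9–7.0. RNA captured on streptavidin was quantified by triplicate qPCR and by Illumina sequencing. The fraction reacted for each sequence was fit to a pseudo-first-order model with bootstrapping, and catalytic enhancement is the median kA divided by the uncatalyzed rate, taken as the low-activity peak of a bimodal Gaussian fit.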

biotinyl-Ile-oxazolone = test: self-aminoacylation, catalytic enhancement (BIO) (fold over background); higher = more active; k-Seq, kA / k0A0; sequences stand for … in GGGAAUGGAUCCACAUCUACGAAUUC…UUCACUGCAGACUUGACGAAGCUG
Procedure, shortened: as §1

biotinyl-Trp-oxazolone = test: self-aminoacylation, catalytic enhancement (BWO) (fold over background); higher = more active; k-Seq, kA / k0A0; sequences stand for … in GGGAAUGGAUCCACAUCUACGAAUUC…UUCACUGCAGACUUGACGAAGCUG
Procedure, shortened: as §1

biotinyl-Phe-oxazolone = test: self-aminoacylation, catalytic enhancement (BFO) (fold over background); higher = more active; k-Seq, kA / k0A0; sequences stand for … in GGGAAUGGAUCCACAUCUACGAAUUC…UUCACUGCAGACUUGACGAAGCUG
Procedure, shortened: as §1

biotinyl-Val-oxazolone = test: self-aminoacylation, catalytic enhancement (BVO) (fold over background); higher = more active; k-Seq, kA / k0A0; sequences stand for … in GGGAAUGGAUCCACAUCUACGAAUUC…UUCACUGCAGACUUGACGAAGCUG
Procedure, shortened: as §1

biotinyl-Leu-oxazolone = test: self-aminoacylation, catalytic enhancement (BLO) (fold over background); higher = more active; k-Seq, kA / k0A0; sequences stand for … in GGGAAUGGAUCCACAUCUACGAAUUC…UUCACUGCAGACUUGACGAAGCUG
Procedure, shortened: as §1

Row | Sequence | self-aminoacylation (biotinyl-Met-oxazolone) | self-aminoacylation (biotinyl-Ile-oxazolone) | self-aminoacylation (biotinyl-Trp-oxazolone) | self-aminoacylation (biotinyl-Phe-oxazolone) | self-aminoacylation (biotinyl-Val-oxazolone) | self-aminoacylation (biotinyl-Leu-oxazolone)
1 | CUACUUCAAACGAUCGUUCUG [Fam1A.1 aminoacylation ribozyme variant] | 0.442 | 0.493 | 0.447 | 0.639 | 0.632 | 0.423
2 | AUUCACCUCGGUGAUCGGGUG [Fam2.2 aminoacylation ribozyme variant] | 4.66 | 4.21 | 6 | 28.3 | 4.6 | 5.47
3 | ACACACUUCAAGCAAUCGGUA [Fam1B.1 aminoacylation ribozyme variant] | 1.66 | 1.73 | 2.19 | 2 | 1.55 | 1.84
4 | AAUACCCUGGUCAUGGAGUGA [Fam2.1 aminoacylation ribozyme variant] | 2.43 | 2.21 | 3.45 | 1.9 | 1.86 | 3.47
5 | AUUCACCUAGGUCGUCGGGUA [Fam2.2 aminoacylation ribozyme variant] | 2.24 | 1.85 | 1.95 | 6.61 | 1.95 | 2.71
6 | AUUCUCCUAGGUCAUCGGGAG [Fam2.2 aminoacylation ribozyme variant] | 1.81 | 1.49 | 1.71 | 5.17 | 1.33 | 1.77
7 | UUUACCUUGGUCAUCGAGUGA [Fam2.1 aminoacylation ribozyme variant] | 5.9 | 3.93 | 8.55 | 18.6 | 4.04 | 5.86
8 | CCCCACUUCAAGCAAGCGGUC [Fam1B.1 aminoacylation ribozyme variant] | 2.33 | 2.15 | 5 | 9.34 | 2.38 | 2.61
9 | AUUACCCUGUUCAUCGAGUGG [Fam2.1 aminoacylation ribozyme variant] | 1.03 | 1.08 | 1.48 | 0.962 | 1.29 | 1.25
10 | AUUCACCUAGGUCCUCGGGUA [Fam2.2 aminoacylation ribozyme variant] | 2.26 | 2.44 | 3 | 1.16 | 2.39 | 1.71
11 | AUGUUUGCUAAUAAUCGCAAG [Fam3.1 aminoacylation ribozyme variant] | 0.97 | 1.38 | 1.04 | 1.34 | 1.35 | 1.06
12 | ACUACCCUGGUAAUCGAGUGA [Fam2.1 aminoacylation ribozyme variant] | 7.36 | 3.32 | 9.29 | 43.4 | 3.16 | 7.43
13 | AUUUACCUAGGUCAUCGGGUC [Fam2.2 aminoacylation ribozyme variant] | 1.26 | 1.12 | 1.02 | 0.638 | 1.27 | 1.33
14 | CAGAUUGCUAAUAGUCGCAAG [Fam3.1 aminoacylation ribozyme variant] | 1.24 | 1.37 | 1.31 | 1.9 | 1.28 | 1.23
15 | AUUCACCUAGGACAUCGGGUG [Fam2.2 aminoacylation ribozyme variant] | 3.19 | 2.55 | 3.1 | 18.8 | 2.6 | 3.89
16 | AUUCACCUAGAUCAUCGGGUU [Fam2.2 aminoacylation ribozyme variant] | 0.967 | 1.01 | 1.26 | 0.554 | 1.11 | 1.17
17 | CCACACUUCAAGCAGUCAGUC [Fam1B.1 aminoacylation ribozyme variant] | 0.562 | 0.788 | 0.54 | 0.947 | 0.91 | 0.717
18 | AUUCAGCUAGGUCUUCGGGUG [Fam2.2 aminoacylation ribozyme variant] | 5.01 | 4.2 | 4.96 | 36.2 | 4.24 | 5.34
19 | AAGUUUACUAAUAGUCGCAGG [Fam3.1 aminoacylation ribozyme variant] | 1.25 | 1.55 | 1.61 | 2.36 | 1.34 | 1.6
20 | AUUUCCCUGGGCAUCGAGUGA [Fam2.1 aminoacylation ribozyme variant] | 5.56 | 3 | 6.79 | 32.6 | 3.21 | 6.7
21 | AUUCGCCUCGGUCAUCGGGUG [Fam2.2 aminoacylation ribozyme variant] | 8.96 | 5.14 | 8.94 | 56.3 | 6.21 | 10.9
22 | UUUCACCUAGGUCAACGGGUG [Fam2.2 aminoacylation ribozyme variant] | 3 | 2.27 | 3.09 | 15.6 | 2.25 | 2.65
23 | AUUACCCCGGUCAUCGAGUCA [Fam2.1 aminoacylation ribozyme variant] | 0.928 | 1.24 | 0.734 | 1.3 | 0.988 | 1.06
24 | UUACUUCAAACAAUAGGUCUG [Fam1A.1 aminoacylation ribozyme variant] | 1.26 | 1.2 | 1.07 | 1.69 | 1.25 | 1.08
25 | AAGCUUGCUAGUAGUCGCAAG [Fam3.1 aminoacylation ribozyme variant] | 1.89 | 1.48 | 0.908 | 2.3 | 1.33 | 1.43
26 | CUCCUUCAAACAAUCUGUCUG [Fam1A.1 aminoacylation ribozyme variant] | 0.516 | 0.655 | 1.23 | 2.63 | 0.61 | 0.554

Row | Sequence | self-aminoacylation (biotinyl-Met-oxazolone) | self-aminoacylation (biotinyl-Ile-oxazolone) | self-aminoacylation (biotinyl-Trp-oxazolone) | self-aminoacylation (biotinyl-Phe-oxazolone) | self-aminoacylation (biotinyl-Val-oxazolone) | self-aminoacylation (biotinyl-Leu-oxazolone)
27 | CUACUUCAAACUAUCAGUCUG [Fam1A.1 aminoacylation ribozyme variant] | 0.975 | 1.06 | 0.813 | 1.25 | 1.05 | 0.801
28 | ACACACUCCAAGCAAUCGGUC [Fam1B.1 aminoacylation ribozyme variant] | 0.768 | 0.959 | 0.999 | 1.92 | 0.924 | 0.864
29 | AUUCACCUCGGUCACCGGGUG [Fam2.2 aminoacylation ribozyme variant] | 6.37 | 5 | 8.88 | 41.9 | 4.43 | 6.77
30 | AUAACCCUGGUCAUCGAGUGG [Fam2.1 aminoacylation ribozyme variant] | 8.46 | 3.4 | 6.21 | 20.8 | 3.38 | 7.76
31 | AUUCACGUGGGUCAUCGGGUG [Fam2.2 aminoacylation ribozyme variant] | 9.61 | 5.57 | 9.93 | 94 | 8.26 | 7.84
32 | GCACACUUCAAGCUAUCGGUC [Fam1B.1 aminoacylation ribozyme variant] | 1.36 | 1.48 | 1.81 | 1.47 | 1.48 | 1.35
33 | AUUCACCUAGGUCCUCGGUUG [Fam2.2 aminoacylation ribozyme variant] | 1.39 | 1.13 | 0.815 | 4.8 | 1.31 | 1.51
34 | AUUCACCUACGUUAUCGGGUG [Fam2.2 aminoacylation ribozyme variant] | 7.55 | 3.98 | 6.51 | 63.3 | 4.17 | 9.22
35 | CCCCCCUUCAAGCAAUCGGUC [Fam1B.1 aminoacylation ribozyme variant] | 2 | 1.88 | 44.8 | 80.1 | 2.67 | 3.18
36 | CUUCUUCGAACAAUCGGUCUG [Fam1A.1 aminoacylation ribozyme variant] | 0.768 | 0.627 | 0.443 | 0.708 | 0.743 | 0.706
37 | AUUCUCCUAGGACAUCGGGUG [Fam2.2 aminoacylation ribozyme variant] | 4.55 | 2.81 | 3.73 | 27.8 | 3.62 | 5.06
38 | ACUACCCUGGUCAUCGAGUGC [Fam2.1 aminoacylation ribozyme variant] | 5.55 | 2.18 | 4.17 | 10.1 | 2.44 | 5.6
39 | CUACUUCAAACAAUCCGUCUG [Fam1A.1 aminoacylation ribozyme variant] | 0.673 | 0.788 | 1.26 | 1.92 | 0.806 | 0.661
40 | CCACACUUCAAGCAAUCUGGC [Fam1B.1 aminoacylation ribozyme variant] | 0.71 | 0.851 | 0.834 | 0.94 | 0.861 | 0.804
41 | AUUACCCUGGACAGCGAGUGA [Fam2.1 aminoacylation ribozyme variant] | 3.3 | 2.24 | 2.52 | 10.9 | 2.12 | 4.19
42 | GUAACCCUGGUCAUCGAGUGA [Fam2.1 aminoacylation ribozyme variant] | 15.2 | 7.01 | 15.1 | 75.7 | 6.13 | 15.6
43 | AUUCGCCUAGGUCAUUGGGUG [Fam2.2 aminoacylation ribozyme variant] | 4.27 | 3.14 | 4.29 | 23.2 | 3.23 | 5.43
44 | CCCCACUUCAAGCAAUCAGUC [Fam1B.1 aminoacylation ribozyme variant] | 0.987 | 0.981 | 6.51 | 19.8 | 1.14 | 1.13
45 | AGUCACCUAAGUCAUCGGGUG [Fam2.2 aminoacylation ribozyme variant] | 6.86 | 4.94 | 6.74 | 69.3 | 4.5 | 6.89
46 | UUUACCCUGGUCAUGGAGUGA [Fam2.1 aminoacylation ribozyme variant] | 3.46 | 2.58 | 3.99 | 9.54 | 2.44 | 3.04
47 | CUAGUUCAAACAAUCGGGCUG [Fam1A.1 aminoacylation ribozyme variant] | 1.4 | 1.54 | 2.72 | 2.64 | 1.42 | 1.79
48 | AACUUUGCUAAAAGUCGCAAG [Fam3.1 aminoacylation ribozyme variant] | 2.47 | 3.11 | 4.13 | 6.96 | 2.54 | 2.98
49 | AUUCAACUAGGUCAUGGGGUG [Fam2.2 aminoacylation ribozyme variant] | 4.28 | 2.96 | 4.16 | 27.7 | 3.16 | 5.63
50 | AUUACCCUUGUCAUCGAGGGA [Fam2.1 aminoacylation ribozyme variant] | 1.28 | 1.16 | 1.3 | 2.14 | 0.957 | 1.27
51 | AUUCACCUAGGUCUUCGAGUG [Fam2.2 aminoacylation ribozyme variant] | 2.99 | 2.03 | 3.26 | 9.5 | 2.13 | 3.65
